Test results as given in PMC4845985.

What was measured:
[1] = biological target: fluorescein-labelled hypusine-containing human eIF5A^C22A,C38A,C73A,C129A,T142C (human) (UniProt P63241); assay: fluorescence polarisation; ribosomal complex titrated into 5-10 nM eIF5A-fl; 20 mM Hepes pH 7.5, 100 mM KOAc, 2.5 mM Mg(OAc)2, 1 mM DTT, 15 μM BSA; 30°C 30 min
[2] = biological target: human 60S ribosomal subunit (human (endogenous in HeLa)); assay: fluorescence polarisation; competition: non-labeled eIF5A titrated (from 5 μM) into preformed ribosome-eIF5A-fl, ribosome 50 nM; same buffer, 30°C 30 min; apparent Ki
[3] = biological target: human reconstituted 80S ribosome (40S+60S) (human (endogenous in HeLa)); assay: as above
[4] = biological target: human reconstituted 80S ribosome with Met-tRNAi^Met (40S+60S+Met-tRNAi^Met) (human (endogenous in HeLa)); assay: as above
[5] = biological target: yeast pre-assembled 80S ribosome (yeast) (UniProt P26321); assay: as above
[6] = biological target: human ribosomes (complex not specified) (human (endogenous in HeLa)); assay: fluorescence polarisation; yeast eIF5A with human ribosomes by anisotropy change; data not shown
[7] = biological target: fluorescein-labelled hypusine-containing human eIF5A^C22A,C38A,C73A,C129A,T142C (human) (UniProt P63241); assay: fluorescence polarisation; yeast 80S titrated into eIF5A-fl in the presence of saturating eEF2 (1 μM); same buffer, 30°C
[8] = biological target: yeast pre-assembled 80S ribosome (yeast) (UniProt P26321); assay: fluorescence polarisation; competition: non-labeled yeast eIF5A titrated into preformed 80S-eIF5A-fl in the presence of saturating eEF2

Molecule | Kd [1] [nM] | Ki [5] [nM] | also measured
human 60S ribosomal subunit (complex) | 128 |  | 
non-labeled hypusine-containing human eIF5A (from UniProt P63241 1-154) (natural protein) |  | < 5 | Ki [2]: 16 nM; Ki [3]: 12 nM; Ki [4]: < 5 nM
yeast eIF5A tested on human ribosomes (data not shown) (from UniProt P23301 1-157) (natural protein) |  |  | affinity (constant not named) [6]: > 2000 nM
non-hypusine-containing human eIF5A^T142C (lysine-containing) (from UniProt P63241 1-154) (natural protein) |  |  | Ki [2]: 385 nM
human reconstituted 80S ribosome (40S+60S) (complex) | 13 |  | 
yeast eIF5A^C39A,Q22H,L93F (natural protein, hypusine-containing (position not given)) MSDEEHTFETADAGSSATYPMHCSALRKNGFVVIKSRPAKIVDMSTSKTGKHGHAKVHLVAIDIFTGKKLEDLSPSTHNMEVPVVKRNEYQLFDIDDGFLSLMNMDGDTKDDVKAPEGELGDSLQTAFDEGKDLMVTIISAMGEEAAISFKEAARTD |  | 569 | Ki in the presence of saturating eEF2 [8]: 539 nM

Further lines, with some results ahead:

Kd [1] [nM] | Ki [5] [nM] | Molecule | also measured
7 |  | human reconstituted 80S ribosome with Met-tRNAi^Met (40S+60S+Met-tRNAi^Met) (complex) | 
10 |  | yeast pre-assembled 80S ribosome (from UniProt P26321 1-297) (complex) | Kd in the presence of saturating eEF2 [7]: 41 nM
> 1700 |  | human 40S ribosomal subunit (complex) | 
 | 9 | yeast eIF5A^C39A (natural protein, hypusine (co-expressed with the modifying enzymes; position not given)) MSDEEHTFETADAGSSATYPMQCSALRKNGFVVIKSRPAKIVDMSTSKTGKHGHAKVHLVAIDIFTGKKLEDLSPSTHNMEVPVVKRNEYQLLDIDDGFLSLMNMDGDTKDDVKAPEGELGDSLQTAFDEGKDLMVTIISAMGEEAAISFKEAARTD | Ki in the presence of saturating eEF2 [8]: 51 nM
 | 189 | yeast eIF5A^C39A,K56A (natural protein, hypusine-containing (position not given)) MSDEEHTFETADAGSSATYPMQCSALRKNGFVVIKSRPAKIVDMSTSKTGKHGHAAVHLVAIDIFTGKKLEDLSPSTHNMEVPVVKRNEYQLLDIDDGFLSLMNMDGDTKDDVKAPEGELGDSLQTAFDEGKDLMVTIISAMGEEAAISFKEAARTD | Ki in the presence of saturating eEF2 [8]: 454 nM
